Data as given in patent US20210017284A1 (ABEOME, published 2021).
Blank lines part the entries; values can stand above or below the binder they belong to.

Tests used:
human PD-L1 = target: T1, human PD-L1 (human, UniProt Q9NZQ7 19-238, limits assumed); assay: SPR (format not described)
T1 construct: also called CD274; B7-H1

cynomolgus monkey PD-L1 = target: T2, cynomolgus monkey PD-L1 (cynomolgus monkey, UniProt G7PSE7 19-238); assay: SPR (format not described)
T2 construct: PD-L1 is implied
T2 sequence (G7PSE7 entry or part of it): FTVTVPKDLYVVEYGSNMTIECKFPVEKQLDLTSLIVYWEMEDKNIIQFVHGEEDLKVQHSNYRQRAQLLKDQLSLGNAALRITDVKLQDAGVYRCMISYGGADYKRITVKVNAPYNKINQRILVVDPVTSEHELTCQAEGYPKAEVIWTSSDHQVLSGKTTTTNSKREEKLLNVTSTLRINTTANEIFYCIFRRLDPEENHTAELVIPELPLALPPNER

T1 sequence (Q9NZQ7 19-238 limits assumed): as the sequence (G7PSE7 entry or part of it) above, with T33A, S34A, N62S, Q68R, R82Q, L173F, A185T, I192T, L215H counted along it

- Kd (human PD-L1): 0.349 nM
B1: hABM101.11 (IgG4) (antibody, V domains shown)
VH: QVQLVQSGPEVKKPGASVKVSCKASGYTFTENSMHWVRQSHGKSLEWMGGINPNNGGTSYNQKFKGKVTMTTDKSTSTAYMELRSLTSDDTAVYYCARPYYYGYREDYFDYWGQGTTLTVSS
VL: EIVMTQSPGTLSLSPGERATLSCRASSSVSYMYWYQQKPGQAPRPLIYLTSNLASGIPDRFSGSGSGTDYTLTISRLEPEDFAVYYCQQWSSYPPTFGQGTKVEIKR

- Kd (human PD-L1): 0.374 nM
- Kd (cynomolgus monkey PD-L1): 0.579 nM
B2: hABM101.11 (IgG1) (antibody, V domains shown)
VH: B1 VH
VL: B1 VL
